Measured values taken from US20120316071A1 (published 2012).

B1: Fab VH5-51_IGHD5-18*01>3_IGHJ4*01 G100K/G104T G24T/S28R/G35V (H:KT TRV) & V3-4_IGLJ1*01 V91L/S96P (L:LP) (Fab, V domains shown)
VH: EVQLVQSGAEVKKPGESLKISCKTSGYRFTSYWIVWVRQMPGKGLEWMGIIYPGDSDTRYSPSFQGQVTISADKSISTAYLQWSSLKASDTAMYYCARRKYSYTYDYFDYWGQGTLVTVSS
VL: QTVVTQEPSFSVSPGGTVTLTCGLSSGSVSTSYYPSWYQQTPGQAPRTLIYSTNTRSSGVPDRFSGSILGNKAALTITGAQADDESDYYCLLYMGPGISYVFGTGTKVTVL
notes: Tested as a Fab made in E. coli; also called H:KT TRV & L:LP
B2: Fab VH5-51_IGHD5-18*01>3_IGHJ4*01 G100K/G104T T58A & V3-4_IGLJ1*01 (Fab, V domains shown)
VH: EVQLVQSGAEVKKPGESLKISCKGSGYSFTSYWIGWVRQMPGKGLEWMGIIYPGDSDARYSPSFQGQVTISADKSISTAYLQWSSLKASDTAMYYCARRKYSYTYDYFDYWGQGTLVTVSS
VL: QTVVTQEPSFSVSPGGTVTLTCGLSSGSVSTSYYPSWYQQTPGQAPRTLIYSTNTRSSGVPDRFSGSILGNKAALTITGAQADDESDYYCVLYMGSGISYVFGTGTKVTVL
notes: Tested as Fab; CH1 with His6/Flag tags (plasmid A) and lambda CL (plasmid E) come from the expression vectors
B3: Fab VH5-51_IGHD5-18*01>3_IGHJ4*01 G100K/G104T G24T/S28R/G35V (H:KT TRV) & V3-4_IGLJ1*01 V91L/S96P S52G (Fab, V domains shown)
VH: EVQLVQSGAEVKKPGESLKISCKTSGYRFTSYWIVWVRQMPGKGLEWMGIIYPGDSDTRYSPSFQGQVTISADKSISTAYLQWSSLKASDTAMYYCARRKYSYTYDYFDYWGQGTLVTVSS
VL: QTVVTQEPSFSVSPGGTVTLTCGLSSGSVSTSYYPSWYQQTPGQAPRTLIYGTNTRSSGVPDRFSGSILGNKAALTITGAQADDESDYYCLLYMGPGISYVFGTGTKVTVL
notes: Tested as a Fab made in E. coli; also called H:KT TRV & L:LP S52G
B4: Fab VH5-51_IGHD5-18*01>3_IGHJ4*01 G100K/G104T G24T/S28R/G35V (H:KT TRV) & V3-4_IGLJ1*01 (Fab, V domains shown)
VH: EVQLVQSGAEVKKPGESLKISCKTSGYRFTSYWIVWVRQMPGKGLEWMGIIYPGDSDTRYSPSFQGQVTISADKSISTAYLQWSSLKASDTAMYYCARRKYSYTYDYFDYWGQGTLVTVSS
VL: QTVVTQEPSFSVSPGGTVTLTCGLSSGSVSTSYYPSWYQQTPGQAPRTLIYSTNTRSSGVPDRFSGSILGNKAALTITGAQADDESDYYCVLYMGSGISYVFGTGTKVTVL
notes: Tested as a Fab made in E. coli; also called H:KT TRV & L:wt; Wildtype (light chain)
B5: Fab VH5-51_IGHD5-18*01>3_IGHJ4*01 G100K/G104T S56A & V3-4_IGLJ1*01 (Fab, V domains shown)
VH: EVQLVQSGAEVKKPGESLKISCKGSGYSFTSYWIGWVRQMPGKGLEWMGIIYPGDADTRYSPSFQGQVTISADKSISTAYLQWSSLKASDTAMYYCARRKYSYTYDYFDYWGQGTLVTVSS
VL: QTVVTQEPSFSVSPGGTVTLTCGLSSGSVSTSYYPSWYQQTPGQAPRTLIYSTNTRSSGVPDRFSGSILGNKAALTITGAQADDESDYYCVLYMGSGISYVFGTGTKVTVL
notes: as for B2
B6: Fab VH5-51_IGHD5-18*01>3_IGHJ4*01 G100K/G104T G54A & V3-4_IGLJ1*01 (Fab, V domains shown)
VH: EVQLVQSGAEVKKPGESLKISCKGSGYSFTSYWIGWVRQMPGKGLEWMGIIYPADSDTRYSPSFQGQVTISADKSISTAYLQWSSLKASDTAMYYCARRKYSYTYDYFDYWGQGTLVTVSS
VL: QTVVTQEPSFSVSPGGTVTLTCGLSSGSVSTSYYPSWYQQTPGQAPRTLIYSTNTRSSGVPDRFSGSILGNKAALTITGAQADDESDYYCVLYMGSGISYVFGTGTKVTVL
notes: as for B2

Columns and labels:
[1] = biological target: T1, Recombinant Human DLL4 (delta-like protein 4) (human, UniProt Q9NR61 27-524); test: ELISA, DLL4 coated on plate; Fab at 33.33 (head prints µM, text says nM)
T1 construct: Bought recombinant protein (R&D Systems Cat#1506-D4/CF); also called rHuman DLL4; Delta-like 4

[2] = biological target: T1, Recombinant Human DLL4 (delta-like …); test: ELISA, DLL4 coated on plate; Fab at 0.05 (head prints µM, text says nM)
[3] = biological target: T1, Recombinant Human DLL4 (delta-like …); test: ELISA, DLL4 coated on plate; Fab at 11.11 (head prints µM, text says nM)
[4] = biological target: T1, Recombinant Human DLL4 (delta-like …); test: ELISA, DLL4 coated on plate; Fab at 1.23 (head prints µM, text says nM)
[5] = biological target: T1, Recombinant Human DLL4 (delta-like …); test: ELISA, DLL4 coated on plate; Fab at 100 (head prints µM, text says nM)
[6] = biological target: T1, Recombinant Human DLL4 (delta-like …); test: ELISA, DLL4 coated on plate; Fab at 0.41 (head prints µM, text says nM)
[7] = biological target: T1, Recombinant Human DLL4 (delta-like …); test: ELISA, DLL4 coated on plate; Fab at 3.70 (head prints µM, text says nM)
[8] = biological target: T1, Recombinant Human DLL4 (delta-like …); test: ELISA, DLL4 coated on plate; Fab at 0.14 (head prints µM, text says nM)
[9] = biological target: T2, Recombinant Human DLL4 (R&D Systems Cat#1506-D4/CF) (human, UniProt Q9NR61 27-524); test: ECL (MSD) multispot binding assay, Fab on immobilized recombinant human DLL4
T2 construct: also called rHuman DLL4; delta-like protein 4

Binder	ELISA signal [1]	ELISA signal [2]	ELISA signal [3]	ELISA signal [4]	ELISA signal [5]	ELISA signal [6]	ELISA signal [7]	ELISA signal [8]	ECL Signal/Blank [9]
B1	0.19	0.02	0.07	0.03	0.34	0.02	0.03	0.03	–
B2	–	–	–	–	–	–	–	–	102
B3	0.35	0.02	0.17	0.03	0.69	0.01	0.06	0.02	–
B4	0.08	0.01	0.04	0.01	0.16	0.01	0.03	0	–
B5	–	–	–	–	–	–	–	–	55
B6	–	–	–	–	–	–	–	–	4.1
